Results as given in patent publication US20070082364A1 (Takeda / Millennium, published 2007).

Assays:
[1] = target: T1, human GPR7 (human, UniProt P48145 1-328); experiment: cell-based or functional assay
T1 sequence: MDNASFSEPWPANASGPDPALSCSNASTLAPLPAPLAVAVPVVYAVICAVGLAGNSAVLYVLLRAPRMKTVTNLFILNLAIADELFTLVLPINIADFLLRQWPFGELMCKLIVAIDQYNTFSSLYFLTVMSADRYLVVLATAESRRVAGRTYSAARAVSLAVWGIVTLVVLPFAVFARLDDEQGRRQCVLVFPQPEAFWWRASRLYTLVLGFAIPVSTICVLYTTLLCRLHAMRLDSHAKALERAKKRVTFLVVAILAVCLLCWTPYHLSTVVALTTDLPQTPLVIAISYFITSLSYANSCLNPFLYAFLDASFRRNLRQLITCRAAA

[2] = target: human GPR8 (human, UniProt P48146 1-333); experiment: cell-based or functional assay
Chain of human GPR8 (P48146 whole entry): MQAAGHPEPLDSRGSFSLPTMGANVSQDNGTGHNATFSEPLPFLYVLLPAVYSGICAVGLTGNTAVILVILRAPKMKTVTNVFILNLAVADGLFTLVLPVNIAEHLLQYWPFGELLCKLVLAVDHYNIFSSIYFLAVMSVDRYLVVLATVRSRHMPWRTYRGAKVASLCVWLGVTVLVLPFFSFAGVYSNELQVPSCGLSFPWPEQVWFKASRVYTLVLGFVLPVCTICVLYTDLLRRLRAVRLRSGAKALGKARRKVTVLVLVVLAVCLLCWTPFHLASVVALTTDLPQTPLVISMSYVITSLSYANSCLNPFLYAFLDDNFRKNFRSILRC

## WYKHVASPRYHTVGRAAGLLMGL [human neuropeptide W (1-23)]
[1]
  cAMP level in human GPR7-expressed cells, relative to FSK stimulation only: 46%
[2]
  cAMP level in human GPR8-expressed cells, relative to FSK stimulation only: 31%
